Measured values reported in patent publication US20250375497A1 (UNIVERSITY OF VIRGINIA PATENT FOUNDATION, published 2025).

Target: T1, Myc-tagged barley CslF6 (barley (Hordeum vulgare subsp. vulgare))
T1 construct: also called Myc-tagged CslF6 species; not shown: Myc tag
T1 chain: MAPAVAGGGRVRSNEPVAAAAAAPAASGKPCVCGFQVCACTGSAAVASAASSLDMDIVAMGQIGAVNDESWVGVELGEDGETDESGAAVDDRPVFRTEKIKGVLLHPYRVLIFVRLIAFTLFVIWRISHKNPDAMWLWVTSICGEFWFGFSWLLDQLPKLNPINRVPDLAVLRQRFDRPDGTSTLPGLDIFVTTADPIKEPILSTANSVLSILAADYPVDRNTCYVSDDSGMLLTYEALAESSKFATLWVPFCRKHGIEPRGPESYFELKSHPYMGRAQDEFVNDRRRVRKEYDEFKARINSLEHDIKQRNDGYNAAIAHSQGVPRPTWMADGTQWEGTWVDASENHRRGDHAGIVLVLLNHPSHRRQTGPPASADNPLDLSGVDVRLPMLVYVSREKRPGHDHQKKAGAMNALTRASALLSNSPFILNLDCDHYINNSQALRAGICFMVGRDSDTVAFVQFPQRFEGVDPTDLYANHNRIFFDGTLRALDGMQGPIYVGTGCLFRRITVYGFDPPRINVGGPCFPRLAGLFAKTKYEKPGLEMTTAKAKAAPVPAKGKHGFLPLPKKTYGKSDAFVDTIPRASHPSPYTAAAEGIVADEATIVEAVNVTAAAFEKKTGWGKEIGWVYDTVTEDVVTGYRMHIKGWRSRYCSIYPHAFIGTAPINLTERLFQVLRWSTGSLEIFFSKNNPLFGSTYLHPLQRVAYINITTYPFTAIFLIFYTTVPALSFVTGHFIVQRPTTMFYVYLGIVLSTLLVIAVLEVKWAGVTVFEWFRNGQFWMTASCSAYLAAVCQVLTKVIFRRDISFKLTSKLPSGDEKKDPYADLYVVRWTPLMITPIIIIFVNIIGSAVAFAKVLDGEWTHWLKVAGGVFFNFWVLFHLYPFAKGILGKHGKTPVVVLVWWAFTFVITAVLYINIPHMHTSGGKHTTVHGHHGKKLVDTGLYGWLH
Assay: co-purification of His- and Myc-tagged CslF6

B1: barley (Hordeum vulgare) cellulose synthase-like CslF6 with N-terminal 12xHis tag (enzyme)
chain: MAPAVAGGGRVRSNEPVAAAAAAPAASGKPCVCGFQVCACTGSAAVASAASSLDMDIVAMGQIGAVNDESWVGVELGEDGETDESGAAVDDRPVFRTEKIKGVLLHPYRVLIFVRLIAFTLFVIWRISHKNPDAMWLWVTSICGEFWFGFSWLLDQLPKLNPINRVPDLAVLRQRFDRPDGTSTLPGLDIFVTTADPIKEPILSTANSVLSILAADYPVDRNTCYVSDDSGMLLTYEALAESSKFATLWVPFCRKHGIEPRGPESYFELKSHPYMGRAQDEFVNDRRRVRKEYDEFKARINSLEHDIKQRNDGYNAAIAHSQGVPRPTWMADGTQWEGTWVDASENHRRGDHAGIVLVLLNHPSHRRQTGPPASADNPLDLSGVDVRLPMLVYVSREKRPGHDHQKKAGAMNALTRASALLSNSPFILNLDCDHYINNSQALRAGICFMVGRDSDTVAFVQFPQRFEGVDPTDLYANHNRIFFDGTLRALDGMQGPIYVGTGCLFRRITVYGFDPPRINVGGPCFPRLAGLFAKTKYEKPGLEMTTAKAKAAPVPAKGKHGFLPLPKKTYGKSDAFVDTIPRASHPSPYTAAAEGIVADEATIVEAVNVTAAAFEKKTGWGKEIGWVYDTVTEDVVTGYRMHIKGWRSRYCSIYPHAFIGTAPINLTERLFQVLRWSTGSLEIFFSKNNPLFGSTYLHPLQRVAYINITTYPFTAIFLIFYTTVPALSFVTGHFIVQRPTTMFYVYLGIVLSTLLVIAVLEVKWAGVTVFEWFRNGQFWMTASCSAYLAAVCQVLTKVIFRRDISFKLTSKLPSGDEKKDPYADLYVVRWTPLMITPIIIIFVNIIGSAVAFAKVLDGEWTHWLKVAGGVFFNFWVLFHLYPFAKGILGKHGKTPVVVLVWWAFTFVITAVLYINIPHMHTSGGKHTTVHGHHGKKLVDTGLYGWLH
notes: Expressed in Sf9 insect cells and purified in detergent (LMNG/CHS, then GDN); also called HvCslF6; His-tagged CslF6; not shown: N-terminal 12xHis tag
- binding result: no binding
